Where a chain is given by its changes, count along the chain named. Names and notes keep the numbering of the source.
Tests used:
[1] = target: T1, UV … LOCUS 8 (UVR8), wild-type, purified (Arabidopsis thaliana), Q9FN03; test: SDS-PAGE with non-boiled samples; purified protein not exposed to UV-B; 10% gel, Coomassie stain; dimer to monomers; conditions: remark: other sources report otherwise
T1 chain: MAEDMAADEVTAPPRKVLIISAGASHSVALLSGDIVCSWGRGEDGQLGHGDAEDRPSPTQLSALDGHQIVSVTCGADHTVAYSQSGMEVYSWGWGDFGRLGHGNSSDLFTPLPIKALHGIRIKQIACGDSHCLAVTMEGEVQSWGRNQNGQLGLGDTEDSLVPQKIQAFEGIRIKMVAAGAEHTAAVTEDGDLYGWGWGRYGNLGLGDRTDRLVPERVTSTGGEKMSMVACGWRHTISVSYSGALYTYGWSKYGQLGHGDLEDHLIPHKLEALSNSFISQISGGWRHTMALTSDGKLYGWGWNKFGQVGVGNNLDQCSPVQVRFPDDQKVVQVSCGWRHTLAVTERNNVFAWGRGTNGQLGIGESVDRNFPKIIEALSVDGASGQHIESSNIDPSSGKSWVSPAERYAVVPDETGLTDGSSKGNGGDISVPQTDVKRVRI

[2] = target: the molecule itself; test: SDS-PAGE with non-boiled samples; protein extracts of 14-day-old plants not exposed to UV-B (also after return to white light following UV-B, re-dimerization); immunoblot with anti-UVR8-C; dimer to monomers
[3] = target: the molecule itself; test: SDS-PAGE with non-boiled samples; purified protein not exposed to UV-B; 10% gel, Coomassie stain; dimer to monomers

B1: UV … LOCUS 8 (UVR8), wild-type, purified, Q9FN03 1-440 (natural protein)
chain: T1 chain
- stoichiometry N [1]: 2

B2: GFP-UVR8^C231S,C335S (uvr8-1/35Spro:GFP-UVR8^C231S,C335S plants) (natural protein, Arabidopsis thaliana, UniProt Q9FN03 1-440, looked up)
chain: T1 chain with C231S, C335S
notes: UVR8, Arabidopsis thaliana, with C231S and C335S; Cloned into the pEZR(K)L-C vector by the methods of Cloix et al. (2012); also called GFP-UVR8^SS; source: transgenic Arabidopsis uvr8-1/CaMV35Spro:GFP-UVR8^C231S,C335S, in protein extract
- stoichiometry N [2]: 2

B3: UVR8^C231S,C335S, purified (natural protein, Arabidopsis thaliana, UniProt Q9FN03 1-440, looked up)
chain: T1 chain with C231S, C335S
notes: UVR8, Arabidopsis thaliana, with C231S and C335S; also called UVR8^SS; source: E. coli, purified (as detailed by Christie et al., 2012)
- stoichiometry N [3]: 2
